This note sets out measurements from the RNAGym collection of RNA variant scans (doi:10.1073/pnas.2313332121).

The labels stand for the following.
B1: TPR t1 (parent)
chain: GACCAAUCUGCCCUCAGAGCUCGAGAACAUCUUCGGAUGCAGAGGAGGCAGGCUUCGGUGGCGCGAUAGCGCCAACGUCCUCAACCUCCAAUGCAUCCCACCACAUGAUGAUGCCUGAAGAGCCUUGGUUUUUUG

In this data set the parent is B1. Kind of data set: polymerase ribozyme fitness, log enrichment relative to wild type (log ratio); higher = more active; in vitro selection for triplet polymerase activity. A digest of the protocol: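 A heterodimeric triplet polymerase ribozyme had each of its subunits mutagenized by PCR into a library, which was transcribed. One round of in vitro selection, done in triplicate, annealed each library with a biotinylated primer, its partner subunit and triplets, then incubated it frozen at −7 °C before gel excision of extended constructs, streptavidin-bead capture and RT-PCR. Fitness is the logarithm of genotype enrichment relative to wild-type enrichment, based on Illumina sequencing of inputs and outputs and inverse-variance-weighted replicate averages. A base-2 logarithm is used, and genotypes were kept only with ≥10 input reads and ≥1 read per output.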
For C15G C49G U106C C124U, the “polymerase ribozyme fitness (log ratio)” value was -2.11.

As to C8G G69U G107U G113A, the “polymerase ribozyme fitness (log ratio)” value was -1.04.

For A6U C94A U96G, the “polymerase ribozyme fitness (log ratio)” value is -3.1.

C4G U129C: the “polymerase ribozyme fitness (log ratio)” value is -1.99.

Turning to C15G G61C, the “polymerase ribozyme fitness (log ratio)” value was -2.41.

On to C86G G110A G113U C124A, for which the “polymerase ribozyme fitness (log ratio)” value is -6.69.

In the case of A6U C15A C56A A75G A105C, the “polymerase ribozyme fitness (log ratio)” value was -4.99.

On to U21A A29G, for which the “polymerase ribozyme fitness (log ratio)” value is -1.38.

Consider U9G C72U C102A G122A U125A, for which the “polymerase ribozyme fitness (log ratio)” value is -1.75.

Turning to C11G G45U, the “polymerase ribozyme fitness (log ratio)” value is -2.69.

For the variant C34A G39U C73G C98A, the “polymerase ribozyme fitness (log ratio)” value is -4.33.

Take C12G G71C A105G U125A: the “polymerase ribozyme fitness (log ratio)” value was -4.36.

As to A2C C11A G48U C72U C80U G120U, the “polymerase ribozyme fitness (log ratio)” value was -3.83.

As to C86U C89U, the “polymerase ribozyme fitness (log ratio)” value is -0.118.

On to U55G C79A C82U, for which the “polymerase ribozyme fitness (log ratio)” value was -1.09.

As for G48A C82U, the “polymerase ribozyme fitness (log ratio)” value is -0.23.

For the variant G60C C104U U126A, the “polymerase ribozyme fitness (log ratio)” value is -1.46.

For C15U A29U C40A A46C C123A, the “polymerase ribozyme fitness (log ratio)” value is -5.62.

Take G57A C62G: the “polymerase ribozyme fitness (log ratio)” value was -3.37.

As for G10C C62U, the “polymerase ribozyme fitness (log ratio)” value is -0.917.

In the case of U109G U132A, the “polymerase ribozyme fitness (log ratio)” value was -3.91.

With U7C G42C U87A, the “polymerase ribozyme fitness (log ratio)” value was -1.73.

Regarding C53U A83C U87C, the “polymerase ribozyme fitness (log ratio)” value was 0.394.

As for G36A G44A G61U G77U A84U, the “polymerase ribozyme fitness (log ratio)” value was -3.54.

Turning to G48C U67C G71A A95G U106A, the “polymerase ribozyme fitness (log ratio)” value was -8.09.

Turning to A37C C70A, the “polymerase ribozyme fitness (log ratio)” value is -1.82.

On to C56A G63C, for which the “polymerase ribozyme fitness (log ratio)” value is -2.33.

As for A43C G77U C85G, the “polymerase ribozyme fitness (log ratio)” value is -4.12.

With A26U G61U U112C, the “polymerase ribozyme fitness (log ratio)” value is -2.62.

Turning to C8A A50U G52A, the “polymerase ribozyme fitness (log ratio)” value was -2.23.

As for C20G A46U, the “polymerase ribozyme fitness (log ratio)” value is -4.99.

For the variant G48C G61U, the “polymerase ribozyme fitness (log ratio)” value stood at 0.754.

For the variant C11U C72U A83U C101G, the “polymerase ribozyme fitness (log ratio)” value was -1.79.

With A27U C101A, the “polymerase ribozyme fitness (log ratio)” value is -4.18.

Turning to G117A U129G, the “polymerase ribozyme fitness (log ratio)” value was -4.37.

In the case of G17C C85G C86U A91U U112G, the “polymerase ribozyme fitness (log ratio)” value was -6.74.

Consider G47U G63A U116A, for which the “polymerase ribozyme fitness (log ratio)” value was -4.47.

Regarding U78C U130G, the “polymerase ribozyme fitness (log ratio)” value is -0.922.

C28G A66G C123U: the “polymerase ribozyme fitness (log ratio)” value was -3.76.

Regarding G69U U112G C123G, the “polymerase ribozyme fitness (log ratio)” value turned out to be 1.13.

Turning to C20G U78C, the “polymerase ribozyme fitness (log ratio)” value is -3.43.

Regarding C12G C15G G47C C82G, the “polymerase ribozyme fitness (log ratio)” value is -4.81.

In the case of A50C G69A U78C C97U, the “polymerase ribozyme fitness (log ratio)” value is -4.07.

As for C40A G44U G45A, the “polymerase ribozyme fitness (log ratio)” value is -3.66.

As for C12G U14A A26U C72U A90G C123A, the “polymerase ribozyme fitness (log ratio)” value is -2.58.

Consider G39U G52A U55C C56A C80U, for which the “polymerase ribozyme fitness (log ratio)” value is -1.08.

Take U7A C8A C13U C56U G61A C79U G120A: the “polymerase ribozyme fitness (log ratio)” value is -4.91.

For C8A G35A C89U A95U U106A, the “polymerase ribozyme fitness (log ratio)” value is -4.65.

As for C70U U131G U133A, the “polymerase ribozyme fitness (log ratio)” value was -0.369.

In the case of A41U G51U C62U, the “polymerase ribozyme fitness (log ratio)” value is -5.82.

In the case of C64A A83U, the “polymerase ribozyme fitness (log ratio)” value was -7.05.

As to G63U U112A G120A, the “polymerase ribozyme fitness (log ratio)” value was -1.02.

Regarding G10C C73G C85G, the “polymerase ribozyme fitness (log ratio)” value was -2.53.

A46C G60C A68U: the “polymerase ribozyme fitness (log ratio)” value was -7.2.

Regarding G19U U21A G47C A90C G113C, the “polymerase ribozyme fitness (log ratio)” value was -4.49.

Consider A18U A74C A90U A121C U129A, for which the “polymerase ribozyme fitness (log ratio)” value was -1.29.

For the variant C4A C72U, the “polymerase ribozyme fitness (log ratio)” value is -1.93.

U55A G71A C82A C115A: the “polymerase ribozyme fitness (log ratio)” value was -0.992.

Take C12U G48C C72G U131G: the “polymerase ribozyme fitness (log ratio)” value was -1.72.

Regarding C4U A41C C56A G63A, the “polymerase ribozyme fitness (log ratio)” value was -4.61.

Turning to U30C C49A C62A C115A, the “polymerase ribozyme fitness (log ratio)” value was -4.4.

U59C A83U C94A C115U: the “polymerase ribozyme fitness (log ratio)” value was -4.3.

Take A68U: the “polymerase ribozyme fitness (log ratio)” value is -7.01.

For the variant C8G C72A, the “polymerase ribozyme fitness (log ratio)” value was found to be 0.366.

As for C13U A16U C56U U129G, the “polymerase ribozyme fitness (log ratio)” value is -0.207.

Consider C12U U38G C72G, for which the “polymerase ribozyme fitness (log ratio)” value is -0.666.

As to C31U C49G G63U A75C, the “polymerase ribozyme fitness (log ratio)” value was -6.11.

C28G A111G: the “polymerase ribozyme fitness (log ratio)” value was -4.41.

Regarding C56G G77A, the “polymerase ribozyme fitness (log ratio)” value was -0.468.

As for U14C U116G G120A U129A, the “polymerase ribozyme fitness (log ratio)” value was -2.37.

In the case of A6U A37U G60U C82G C85G, the “polymerase ribozyme fitness (log ratio)” value is -2.29.

As for G17U C40G A90G A95U C115G, the “polymerase ribozyme fitness (log ratio)” value was -3.65.

Regarding A46U C73G G77U C101A C104U, the “polymerase ribozyme fitness (log ratio)” value was -2.96.

Turning to C49U C73A C114U, the “polymerase ribozyme fitness (log ratio)” value was -2.58.

C53A U112G: the “polymerase ribozyme fitness (log ratio)” value was -0.496.

On to C3U C11U U33A, for which the “polymerase ribozyme fitness (log ratio)” value is -4.58.

Consider C79U C94G A100C G117C, for which the “polymerase ribozyme fitness (log ratio)” value was -6.32.

Regarding G39C C53A U54G G120U, the “polymerase ribozyme fitness (log ratio)” value stood at 0.139.

Turning to A83U C104A, the “polymerase ribozyme fitness (log ratio)” value is -1.18.

With G52C C70U U106A, the “polymerase ribozyme fitness (log ratio)” value is -1.07.

In the case of G25A A66U C70G G110C, the “polymerase ribozyme fitness (log ratio)” value was -6.93.

With G42C G63U C123U U133A, the “polymerase ribozyme fitness (log ratio)” value was -1.98.

Turning to U14C G113A, the “polymerase ribozyme fitness (log ratio)” value is -3.18.

C11A G113A: the “polymerase ribozyme fitness (log ratio)” value was -3.12.
